In patent US20030130324A1, “METHOD FOR PREVENTING OR CONTROLLING CATARACT” (priority 1993, published 2003):

How the values were obtained:
lens epithelial explants [1] = assay: Influence of TGFβ alone and in combination with FGF on lens epithelial explants (standard method); format: cell-based, rat; details: TGFβ 20 ng/ml, up to 5 days culture; summary of Example 1
Protocol: Lens explants were prepared from both postnatal and adult rats and changes during 5 days culture with growth factor(s) were monitored by light and electron microscopy, immunolocalisation of laminin, heparan sulphate proteoglycan and fibre-specific crystallins, and crystallin ELISAs.
Each experiment involved culturing explants for up to 5 days without added growth factors (controls), with TGFβ, with a combination of TGFβ and FGF (TGFβ/FGF), or with FGF alone. FGF is another growth factor that influences lens cell behaviour (Chamberlain and McAvoy, 1989; McAvoy et al., 1991). In some experiments, explants were prepared by a standard method used in our laboratory in which the adhering capsule serves as the substratum for the cells. In others, explants were inverted onto a laminin substratum. The latter method allows cell attachment, spreading and migration to be monitored as well as providing good visualisation of individual cells. […]
Explants used for immunofluorescent localisation were collected at the end of the culture period, fixed in Carnoy's fixative for 20 min at room temperature, transferred to 70% ethanol, then covered with a drop of melted 2.5% agar, before dehydrating in ethanol and embedding in paraffin. […] Controls for non-specific fluorescence were included routinely, that is, sections were treated with non-immune rabbit serum instead of specific antibody. […]

lens epithelial explants [2] = assay: Lens epithelial explants cultured on laminin substratum with TGFβ and/or FGF; format: cell-based, rat; details: explants from 21-day-old rats, TGFβ 20 ng/ml, in the presence or absence of FGF 2 ng/ml, 5 day culture
Protocol: Each experiment involved culturing explants for up to 5 days without added growth factors (controls), with TGFβ, with a combination of TGFβ and FGF (TGFβ/FGF), or with FGF alone. FGF is another growth factor that influences lens cell behaviour (Chamberlain and McAvoy, 1989; McAvoy et al., 1991). In some experiments, explants were prepared by a standard method used in our laboratory in which the adhering capsule serves as the substratum for the cells. In others, explants were inverted onto a laminin substratum. The latter method allows cell attachment, spreading and migration to be monitored as well as providing good visualisation of individual cells.
Bovine brain basic FGF was prepared and stored at −20° C. as described by Chamberlain and McAvoy (1989). Ultrapure natural human TGFβ1 was obtained from Genzyme (Cambridge, Mass.) and stored at −80° C. Working stock solutions of TGFβ and FGF were prepared (in culture medium or 1% bovine serum albumin—0.5 M NaCl in phosphate-buffered saline, respectively) and centrifuged at 10,000 g for 10 min at 4° C. just before use.
This method is as described by Hales et al (1992) Briefly, on the day before the experiment, culture dishes were pre-coated with laminin. […] Responses were monitored daily by phase contrast microscopy.

[3] = tested on: TGFβ-induced cataract-like changes in rat lens epithelial explants; assay: Explant study using α2-macroglobulin to inhibit TGFβ-induced cataract-like changes; format: cell-based; set-up: key to cataract-like changes: extent of spindle-like elongation: −, negligible change or reverted to predominantly epithelial morphology; +-++++, indicates extent of spindle-like elongation; +-++++, indicates extent of spindle-like elongation; +-++++, indicates extent of spindle-like elongation; +-++++, indicates extent of spindle-like elongation; †-††††, indicates extent of cell loss; †-††††, indicates extent of cell loss; †-††††, indicates extent of cell loss; †-††††, indicates extent of cell loss; o, elongation assessment was invalidated by cell loss
Protocol: α2-macroglobulin prepared from bovine plasma was obtained from Boehringer Mannheim Australia (Castle Hill, NSW; #602 442). Lens epithelial explants (2 per culture dish) were prepared from 21-day-old rats as described previously (See Example 1, Standard Method). α2-macroglobulin was dissolved in culture medium (defined in Example 1) at a final concentration of 400 μg/ml. The solution was sterilised by passing through a 0.22 μm filter and a portion was diluted with an equal volume of sterile medium. These solutions were equilibrated at 37° C. in 5% CO2/air before use. A stock solution containing 25 pg/10 μl TGFβ2 (Genzyme, Cambridge, Mass.) was prepared in sterile medium. Six treatment groups were then set up by replacing medium in culture dishes containing explants with 1 ml medium or 1 ml medium containing 200 or 400 μg/ml α2-macroglobulin, with or without added TGFβ, as indicated in Table 2. Explants were cultured and monitored for cataract-like changes by phase contrast microscopy. In particular, each explant was graded according to the extent of spindle-like elongation and cell death, which are characteristically observed in explants cultured with TGFβ (See Examples 1 and 2). Explants were photographed on days 3-5.

[4] = Day 4, TGFβ2 25 pg/ml, α2-MG 200 μg/ml
[5] = Day 4, TGFβ2 25 pg/ml, α2-MG 400 μg/ml
[6] = Day 5, TGFβ2 25 pg/ml, α2-MG 200 μg/ml
[7] = Day 5, TGFβ2 25 pg/ml, α2-MG 400 μg/ml

TGFβ: Ultrapure natural human TGFβ1 obtained from Genzyme (Example 1)
cell elongation in explants (lens epithelial explants [1]): extensive and rapid elongation
other TGFβ-induced cataract-like responses in explants (lens epithelial explants [1]): induced accumulation of extracellular matrix, capsule wrinkling, cell death by apoptosis and distinctive arrangements of cells
cell spreading and migration onto laminin substratum (lens epithelial explants [2]): inhibited spreading and migration

B1: α2-macroglobulin (protein, UniProt Q7SIH1 24-1510, looked up)
Alpha-2-macroglobulin: SVSGKPQYMVLVPSLLHTETPEKGCLLLSHLNETVTVSASLESVRENRSLFTDVVAEKDLFHCVSFTLPRSPTSQEVMFLTIQVKGPTQEFKKRTTVLVKNEESLVFVQTDKPIYKPEQTVKFRIVLLDESFHPLNELVPLVYVEDPKGNRIAQWQNLEVENGLQQLTFPLSSEPFQGSYKVVVQKGSGGTAEHPFTVEEFVLPKFEVQVRMPKIITILEEEVQVSVCGLYTYGKPVPGRVTMNMCRKYRNPSNCYGEESNAVCEKFSGELNNEGCFSQQVNTKIFQLKRQEFEMKIEVEAKIQEEGTEVELTGKGATEITTTITKLSFVTVDSNLRRGIPFTGKVLLVDGKGVPMPNKVIFITANEANHNSNTTTDEHGLAQFSITTTKIKGTSLSIRVKYKDHSPCYGYQWLSEEHQDAYHSANLVFSRSNSFVYLEPLPRELPCGKTQTVQAHYVLKGQVLKDLKELVFYYLIMAKGGIVRSGTHTLPVEQGDMQGHFSMSVPVESDIAPVARLLIYAILPDGEVVGDSARYEIEHCLANKVGLNFSPGQSFPASQAHLRVTASPQSLCALRAVDQSVLLMRPEAELSAATVYNLLPVKDLSSFPSSVNQQEEDNEDCISHDNVYINGIMYFPVSNTNEKDMYSFLQDMGLKAFTNSKIHKPKICPQPEEHRIQHHTLLASPVRAEMGRNRDFVHFDDTSEPPTETVRKYFPETWIWDLVVVSSSGVHEVEVTVPDTITEWKAGALCLSRDTGLGLSPTASLRVFQPFFVELTMPYSVIRGEAFTLKATVLNYLPKCIRVSVQLEASPAFLAVPEKEQETYCICGNGRQTVSWAVTPKSLGNVNFTVSAEAVESQELCGSEVPVVPEHGRKDTIIKPLLVEPEGLEKEVIFNSLLCPSVDFVFLGAEDGGQVLRHFPPAAATDTAADAHDPARPGAKVSESLSLKLPPNVVEESARASFSVLGDILGSAMRNTQNLLQMPYGCGEQNMARFAPNIYVLDYLNETQQLTAELKSKAILYLNTGYQRQLLYKHFDGSYSTFGEHRGNSEGNTWLTAFVLKSFAQARGYIFIDEAHITEALTWLAQKQKSNGCFRSTGTLLNNAIKGGVDDEVTLSAYITIALLEMPLPVTHPVVRNALFCLDSAWKSAKEGSQGSHVYTKALLAYAFALAGNQERRTEVLTSLYEEAVKEDNTIHWTRPQKPRLLTEDIYQPRAPSAEVEMTAYVILAHVTAQPAPNPEDLKRATSIVKWISKQQNCQGGFSSTQDTVVALHALSRYGAATFTSARKAAQVTIQSSGTFSTKFQVENSNRLLLQQVSLPEVPGEYSMSVTGEGCVYLQTSLKYNILPKKDEFPFALEVQTLPQTCDGPKAHTSFQISLSVSYIGSRPASNMAIVDVKMVSGFIPLKPTVKMLERSNVSRTEVSNNHVLIYLDKVTNETLTLTFTVLQDIPVRDLKPAIVKVYDYYETDEFAVAEYSAPCSKDIGNA
notes: α2-macroglobulin prepared from bovine plasma, Boehringer Mannheim Australia #602 442
cataract-like changes: extent of spindle-like elongation ([3]; Day 2, TGFβ2 0 pg/ml, α2-MG 200 μg/ml): −
cataract-like changes: extent of spindle-like elongation ([3]; Day 2, TGFβ2 0 pg/ml, α2-MG 400 μg/ml): −
cataract-like changes: extent of spindle-like elongation ([3]; Day 2, TGFβ2 25 pg/ml, α2-MG 200 μg/ml): −
cataract-like changes: extent of spindle-like elongation ([3]; Day 2, TGFβ2 25 pg/ml, α2-MG 400 μg/ml): −
cataract-like changes: extent of spindle-like elongation ([3]; Day 3, TGFβ2 0 pg/ml, α2-MG 200 μg/ml): −
cataract-like changes: extent of spindle-like elongation ([3]; Day 3, TGFβ2 0 pg/ml, α2-MG 400 μg/ml): −
cataract-like changes: extent of spindle-like elongation ([3]; Day 3, TGFβ2 25 pg/ml, α2-MG 200 μg/ml): + (+-++++, indicates extent of spindle-like elongation)
cataract-like changes: extent of spindle-like elongation ([3]; Day 3, TGFβ2 25 pg/ml, α2-MG 400 μg/ml): + (+-++++, indicates extent of spindle-like elongation)
cataract-like changes: extent of spindle-like elongation ([3]; Day 4, TGFβ2 0 pg/ml, α2-MG 200 μg/ml): −
cataract-like changes: extent of spindle-like elongation ([3]; Day 4, TGFβ2 0 pg/ml, α2-MG 400 μg/ml): −
cataract-like changes: extent of cell loss [3, 4]: † (†-††††, indicates extent of cell loss)
cataract-like changes: extent of spindle-like elongation [3, 4]: + (+-++++, indicates extent of spindle-like elongation)
cataract-like changes: extent of cell loss [3, 5]: † (†-††††, indicates extent of cell loss)
cataract-like changes: extent of spindle-like elongation [3, 5]: + (+-++++, indicates extent of spindle-like elongation)
cataract-like changes: extent of spindle-like elongation ([3]; Day 5, TGFβ2 0 pg/ml, α2-MG 200 μg/ml): −
cataract-like changes: extent of spindle-like elongation ([3]; Day 5, TGFβ2 0 pg/ml, α2-MG 400 μg/ml): −
cataract-like changes: extent of cell loss [3, 6]: † (†-††††, indicates extent of cell loss)
cataract-like changes: extent of spindle-like elongation [3, 6]: −
cataract-like changes: extent of cell loss [3, 7]: † (†-††††, indicates extent of cell loss)
cataract-like changes: extent of spindle-like elongation [3, 7]: −
inhibition of TGFβ-induced changes ([3]; TGFβ2 25 pg/ml, α2-macroglobulin 200 or 400 μg/ml, days 2-5): substantially inhibited
changes in explants cultured without TGFβ ([3]; medium containing α2-macroglobulin 200 or 400 μg/ml, no TGFβ, throughout the culture period): No significant changes
